Data: patent US20150246136A1 (Bayer, published 2015)
Values joined by “and” are separate entries in the source; they are usually repeats but may differ in a detail not shown here. Identical values can stand only once.

The binders below were run against Mesothelin (SwissProt reference Q13421-3) (Homo sapiens, UniProt Q13421 37-622) (assay: cell-based or functional assay).

Binder	IC50 (nM), HT29 meso+ cells, MTT proliferation assay
Example 56, conjugate of anti-mesothelin antibody MF-Ta (antibody, human IgG1, lambda, V domains shown, toxophore-linker on Cys sulfur, sites not given) VH: QVELVQSGAEVKKPGESLKISCKGSGYSFTSYWIGWVRQAPGKGLEWMGIIDPGDSRTRYSPSFQGQVTISADKSISTAYLQWSSLKASDTAMYYCARGQLYGGTYMDGWGQGTLVTVSS VL: DIALTQPASVSGSPGQSITISCTGTSSDIGGYNSVSWYQQHPGKAPKLMIYGVNNRPSGVSNRFSGSKSGNTASLTISGLQAEDEADYYCSSYDIESATPVFGGGTKLTVLG	0.17 nM
Example 58, conjugate of anti-mesothelin antibody MF-Ta (antibody, human IgG1, lambda, V domains shown, toxophore-linker on Lys NH, sites not given) VH: QVELVQSGAEVKKPGESLKISCKGSGYSFTSYWIGWVRQAPGKGLEWMGIIDPGDSRTRYSPSFQGQVTISADKSISTAYLQWSSLKASDTAMYYCARGQLYGGTYMDGWGQGTLVTVSS VL: DIALTQPASVSGSPGQSITISCTGTSSDIGGYNSVSWYQQHPGKAPKLMIYGVNNRPSGVSNRFSGSKSGNTASLTISGLQAEDEADYYCSSYDIESATPVFGGGTKLTVLG	5 nM
Example 69, conjugate of anti-mesothelin antibody MF-Ta (antibody, human IgG1, lambda, V domains shown, toxophore-linker on Cys sulfur, sites not given) VH: QVELVQSGAEVKKPGESLKISCKGSGYSFTSYWIGWVRQAPGKGLEWMGIIDPGDSRTRYSPSFQGQVTISADKSISTAYLQWSSLKASDTAMYYCARGQLYGGTYMDGWGQGTLVTVSS VL: DIALTQPASVSGSPGQSITISCTGTSSDIGGYNSVSWYQQHPGKAPKLMIYGVNNRPSGVSNRFSGSKSGNTASLTISGLQAEDEADYYCSSYDIESATPVFGGGTKLTVLG	0.07 nM
Example 67, conjugate of anti-mesothelin antibody MF-Ta (antibody, human IgG1, lambda, V domains shown, toxophore-linker on Cys sulfur, sites not given) VH: QVELVQSGAEVKKPGESLKISCKGSGYSFTSYWIGWVRQAPGKGLEWMGIIDPGDSRTRYSPSFQGQVTISADKSISTAYLQWSSLKASDTAMYYCARGQLYGGTYMDGWGQGTLVTVSS VL: DIALTQPASVSGSPGQSITISCTGTSSDIGGYNSVSWYQQHPGKAPKLMIYGVNNRPSGVSNRFSGSKSGNTASLTISGLQAEDEADYYCSSYDIESATPVFGGGTKLTVLG	0.015 nM
Example 73, conjugate of anti-mesothelin antibody MF-Ta (antibody, human IgG1, lambda, V domains shown, toxophore-linker on Cys sulfur, sites not given) VH: QVELVQSGAEVKKPGESLKISCKGSGYSFTSYWIGWVRQAPGKGLEWMGIIDPGDSRTRYSPSFQGQVTISADKSISTAYLQWSSLKASDTAMYYCARGQLYGGTYMDGWGQGTLVTVSS VL: DIALTQPASVSGSPGQSITISCTGTSSDIGGYNSVSWYQQHPGKAPKLMIYGVNNRPSGVSNRFSGSKSGNTASLTISGLQAEDEADYYCSSYDIESATPVFGGGTKLTVLG	25 nM
Example 57, conjugate of anti-mesothelin antibody MF-Ta (antibody, human IgG1, lambda, V domains shown, toxophore-linker on Cys sulfur, sites not given) VH: QVELVQSGAEVKKPGESLKISCKGSGYSFTSYWIGWVRQAPGKGLEWMGIIDPGDSRTRYSPSFQGQVTISADKSISTAYLQWSSLKASDTAMYYCARGQLYGGTYMDGWGQGTLVTVSS VL: DIALTQPASVSGSPGQSITISCTGTSSDIGGYNSVSWYQQHPGKAPKLMIYGVNNRPSGVSNRFSGSKSGNTASLTISGLQAEDEADYYCSSYDIESATPVFGGGTKLTVLG	0.4 nM
Example 63, conjugate of anti-mesothelin antibody MF-Ta (antibody, human IgG1, lambda, V domains shown, toxophore-linker on Cys sulfur, sites not given) VH: QVELVQSGAEVKKPGESLKISCKGSGYSFTSYWIGWVRQAPGKGLEWMGIIDPGDSRTRYSPSFQGQVTISADKSISTAYLQWSSLKASDTAMYYCARGQLYGGTYMDGWGQGTLVTVSS VL: DIALTQPASVSGSPGQSITISCTGTSSDIGGYNSVSWYQQHPGKAPKLMIYGVNNRPSGVSNRFSGSKSGNTASLTISGLQAEDEADYYCSSYDIESATPVFGGGTKLTVLG	0.03 nM
Example 72, conjugate of anti-mesothelin antibody MF-Ta (antibody, human IgG1, lambda, V domains shown, toxophore-linker on Cys sulfur, sites not given) VH: QVELVQSGAEVKKPGESLKISCKGSGYSFTSYWIGWVRQAPGKGLEWMGIIDPGDSRTRYSPSFQGQVTISADKSISTAYLQWSSLKASDTAMYYCARGQLYGGTYMDGWGQGTLVTVSS VL: DIALTQPASVSGSPGQSITISCTGTSSDIGGYNSVSWYQQHPGKAPKLMIYGVNNRPSGVSNRFSGSKSGNTASLTISGLQAEDEADYYCSSYDIESATPVFGGGTKLTVLG	0.05 nM
Example 61, conjugate of anti-mesothelin antibody MF-Ta (antibody, human IgG1, lambda, V domains shown, toxophore-linker on Cys sulfur, sites not given) VH: QVELVQSGAEVKKPGESLKISCKGSGYSFTSYWIGWVRQAPGKGLEWMGIIDPGDSRTRYSPSFQGQVTISADKSISTAYLQWSSLKASDTAMYYCARGQLYGGTYMDGWGQGTLVTVSS VL: DIALTQPASVSGSPGQSITISCTGTSSDIGGYNSVSWYQQHPGKAPKLMIYGVNNRPSGVSNRFSGSKSGNTASLTISGLQAEDEADYYCSSYDIESATPVFGGGTKLTVLG	0.019 nM
Example 75, conjugate of anti-mesothelin antibody MF-Ta (antibody, human IgG1, lambda, V domains shown, toxophore-linker on Lys NH, sites not given) VH: QVELVQSGAEVKKPGESLKISCKGSGYSFTSYWIGWVRQAPGKGLEWMGIIDPGDSRTRYSPSFQGQVTISADKSISTAYLQWSSLKASDTAMYYCARGQLYGGTYMDGWGQGTLVTVSS VL: DIALTQPASVSGSPGQSITISCTGTSSDIGGYNSVSWYQQHPGKAPKLMIYGVNNRPSGVSNRFSGSKSGNTASLTISGLQAEDEADYYCSSYDIESATPVFGGGTKLTVLG	0.2 nM
Example 74, conjugate of anti-mesothelin antibody MF-Ta (antibody, human IgG1, lambda, V domains shown, toxophore-linker on Cys sulfur, sites not given) VH: QVELVQSGAEVKKPGESLKISCKGSGYSFTSYWIGWVRQAPGKGLEWMGIIDPGDSRTRYSPSFQGQVTISADKSISTAYLQWSSLKASDTAMYYCARGQLYGGTYMDGWGQGTLVTVSS VL: DIALTQPASVSGSPGQSITISCTGTSSDIGGYNSVSWYQQHPGKAPKLMIYGVNNRPSGVSNRFSGSKSGNTASLTISGLQAEDEADYYCSSYDIESATPVFGGGTKLTVLG	9 nM
Example 68, conjugate of anti-mesothelin antibody MF-Ta (antibody, human IgG1, lambda, V domains shown, toxophore-linker on Cys sulfur, sites not given) VH: QVELVQSGAEVKKPGESLKISCKGSGYSFTSYWIGWVRQAPGKGLEWMGIIDPGDSRTRYSPSFQGQVTISADKSISTAYLQWSSLKASDTAMYYCARGQLYGGTYMDGWGQGTLVTVSS VL: DIALTQPASVSGSPGQSITISCTGTSSDIGGYNSVSWYQQHPGKAPKLMIYGVNNRPSGVSNRFSGSKSGNTASLTISGLQAEDEADYYCSSYDIESATPVFGGGTKLTVLG	2 nM
Example 71, conjugate of anti-mesothelin antibody MF-Ta (antibody, human IgG1, lambda, V domains shown, toxophore-linker on Cys sulfur, sites not given) VH: QVELVQSGAEVKKPGESLKISCKGSGYSFTSYWIGWVRQAPGKGLEWMGIIDPGDSRTRYSPSFQGQVTISADKSISTAYLQWSSLKASDTAMYYCARGQLYGGTYMDGWGQGTLVTVSS VL: DIALTQPASVSGSPGQSITISCTGTSSDIGGYNSVSWYQQHPGKAPKLMIYGVNNRPSGVSNRFSGSKSGNTASLTISGLQAEDEADYYCSSYDIESATPVFGGGTKLTVLG	0.6 nM
Example 70, conjugate of anti-mesothelin antibody MF-Ta (antibody, human IgG1, lambda, V domains shown, toxophore-linker on Cys sulfur, sites not given) VH: QVELVQSGAEVKKPGESLKISCKGSGYSFTSYWIGWVRQAPGKGLEWMGIIDPGDSRTRYSPSFQGQVTISADKSISTAYLQWSSLKASDTAMYYCARGQLYGGTYMDGWGQGTLVTVSS VL: DIALTQPASVSGSPGQSITISCTGTSSDIGGYNSVSWYQQHPGKAPKLMIYGVNNRPSGVSNRFSGSKSGNTASLTISGLQAEDEADYYCSSYDIESATPVFGGGTKLTVLG	0.02 nM
Example 66, conjugate of anti-mesothelin antibody MF-Ta (antibody, human IgG1, lambda, V domains shown, toxophore-linker on Cys sulfur, sites not given) VH: QVELVQSGAEVKKPGESLKISCKGSGYSFTSYWIGWVRQAPGKGLEWMGIIDPGDSRTRYSPSFQGQVTISADKSISTAYLQWSSLKASDTAMYYCARGQLYGGTYMDGWGQGTLVTVSS VL: DIALTQPASVSGSPGQSITISCTGTSSDIGGYNSVSWYQQHPGKAPKLMIYGVNNRPSGVSNRFSGSKSGNTASLTISGLQAEDEADYYCSSYDIESATPVFGGGTKLTVLG	1.5 nM
Example 65, conjugate of anti-mesothelin antibody MF-Ta (antibody, human IgG1, lambda, V domains shown, toxophore-linker on Cys sulfur, sites not given) VH: QVELVQSGAEVKKPGESLKISCKGSGYSFTSYWIGWVRQAPGKGLEWMGIIDPGDSRTRYSPSFQGQVTISADKSISTAYLQWSSLKASDTAMYYCARGQLYGGTYMDGWGQGTLVTVSS VL: DIALTQPASVSGSPGQSITISCTGTSSDIGGYNSVSWYQQHPGKAPKLMIYGVNNRPSGVSNRFSGSKSGNTASLTISGLQAEDEADYYCSSYDIESATPVFGGGTKLTVLG	0.14 nM
Example 59, conjugate of anti-mesothelin antibody MF-Ta (antibody, human IgG1, lambda, V domains shown, toxophore-linker on Lys NH, sites not given) VH: QVELVQSGAEVKKPGESLKISCKGSGYSFTSYWIGWVRQAPGKGLEWMGIIDPGDSRTRYSPSFQGQVTISADKSISTAYLQWSSLKASDTAMYYCARGQLYGGTYMDGWGQGTLVTVSS VL: DIALTQPASVSGSPGQSITISCTGTSSDIGGYNSVSWYQQHPGKAPKLMIYGVNNRPSGVSNRFSGSKSGNTASLTISGLQAEDEADYYCSSYDIESATPVFGGGTKLTVLG	1 nM
Example 62, conjugate of anti-mesothelin antibody MF-Ta (antibody, human IgG1, lambda, V domains shown, toxophore-linker on Cys sulfur, sites not given) VH: QVELVQSGAEVKKPGESLKISCKGSGYSFTSYWIGWVRQAPGKGLEWMGIIDPGDSRTRYSPSFQGQVTISADKSISTAYLQWSSLKASDTAMYYCARGQLYGGTYMDGWGQGTLVTVSS VL: DIALTQPASVSGSPGQSITISCTGTSSDIGGYNSVSWYQQHPGKAPKLMIYGVNNRPSGVSNRFSGSKSGNTASLTISGLQAEDEADYYCSSYDIESATPVFGGGTKLTVLG	20 nM
Example 60, conjugate of anti-mesothelin antibody MF-Ta (antibody, human IgG1, lambda, V domains shown, toxophore-linker on Cys sulfur, sites not given) VH: QVELVQSGAEVKKPGESLKISCKGSGYSFTSYWIGWVRQAPGKGLEWMGIIDPGDSRTRYSPSFQGQVTISADKSISTAYLQWSSLKASDTAMYYCARGQLYGGTYMDGWGQGTLVTVSS VL: DIALTQPASVSGSPGQSITISCTGTSSDIGGYNSVSWYQQHPGKAPKLMIYGVNNRPSGVSNRFSGSKSGNTASLTISGLQAEDEADYYCSSYDIESATPVFGGGTKLTVLG	0.06 nM and 0.16 nM
Example 64, conjugate of anti-mesothelin antibody MF-Ta (antibody, human IgG1, lambda, V domains shown, toxophore-linker on Cys sulfur, sites not given) VH: QVELVQSGAEVKKPGESLKISCKGSGYSFTSYWIGWVRQAPGKGLEWMGIIDPGDSRTRYSPSFQGQVTISADKSISTAYLQWSSLKASDTAMYYCARGQLYGGTYMDGWGQGTLVTVSS VL: DIALTQPASVSGSPGQSITISCTGTSSDIGGYNSVSWYQQHPGKAPKLMIYGVNNRPSGVSNRFSGSKSGNTASLTISGLQAEDEADYYCSSYDIESATPVFGGGTKLTVLG	0.11 nM
